One block for each molecule: values may come before it.
Test system: Notch1 (EGF6-13)
Assay: SPR determination of equilibrium dissociation constants
Type: binding, human
Settings: for off-rate from fitted SPR sensograms: series DLL4.v1, DLL4.v2, Delta^MAX, FIG. 2C Notch1 EGF6-13; for binding affinity compared to WT DLL4: stated for all four human Notch receptors (Notch1-4)
Experimental: Equilibrium dissociation constants were determined by surface plasmon resonance using a Biacore T200 instrument (GE Healthcare). Approximately 100 resonance units (RU) of biotinylated Notch extracellular fragments (Notch1 (EGF6-13), Notch2 (EGF6-13), Notch3 (EGF5-12), Notch4 (7-12), and mouse Notch1 (EGF6-13)) were immobilized on individual flow cells at 5 μl/min using a streptavidin-coated sensor chip (Series S Sensor chip SA, GE Healthcare). Three-fold serial dilutions of recombinant DLL4 proteins (N-EGF5) starting at 50 μM (WT DLL4), 18 μM (DLL4.v2), and 6 μM (DLL4.v1 and Delta^MAX) were flowed over the chip at 25° C. in SPR buffer (20 mM HEPES pH 7.4, 150 mM NaCl, 1 mM calcium chloride, 0.1% BSA supplemented with 0.005% surfactant P20). Association (“on-rate”) and dissociation (“off-rate”) phases were performed at 10 μl/min for 120 seconds and 300 seconds, respectively. The sensor chip was regenerated after each injection with 30-second washes of 2.25M Magnesium Chloride containing 25% Ethylene Glycol at 50 μL/min. Data collection rate was performed at 10 Hz, and curves were reference-subtracted from a flow cell containing 100 RU of a negative control non-related protein (biotinylated mouse RNF43 PA domain). The maximum RU for each experiment was normalized to a value of 100% and plotted as a function of concentration using Prism 9 software (GraphPad). Steady-state binding and kinetic curves were fitted using the Biacore T200 evaluation software to a 1:1 Langmuir model to determine the KD values.

Sequence of Notch1 (EGF6-13) (P46531 257-526 limits assumed): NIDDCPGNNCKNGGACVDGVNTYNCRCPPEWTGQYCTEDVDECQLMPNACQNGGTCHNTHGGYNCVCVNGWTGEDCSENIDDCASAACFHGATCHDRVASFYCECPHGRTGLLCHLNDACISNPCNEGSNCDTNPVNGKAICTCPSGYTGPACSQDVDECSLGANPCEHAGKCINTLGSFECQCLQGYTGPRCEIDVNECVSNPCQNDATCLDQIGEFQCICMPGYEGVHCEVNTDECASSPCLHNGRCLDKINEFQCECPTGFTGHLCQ

binding affinity compared to WT DLL4: enhanced affinity
B1: DLL4.v1: human DLL4 construct containing the five E12 mutations (Site 1+Site 2); sequence matches SEQ ID NO: 2 (protein)
chain: SSVFQLQLQEFINERGVLASGRPCEPGCRTFFRVCLKHFQAVVSPGPCTFGTVSTPVLGTNSFAVRDDSSGGGRNPLQLPLNFTWPGTFSLIIEAWHAPGDDLRPEALPPDALISKFAIQGSLAVGQNWLLDEQTSTLTRLRYSYRVICSDNYYGDNCSRLCKKRNDYFGHYVCQPDGNPSCLPGWTGEYCQQPICLSGCHEQNGYCSKPAECLCRPGWQGRLCNECIPHNGCRHGTCSTPWQCTCDEGWGGLFCDQDLNYCTHHSPCKNGATCSNSGQRSYTCTCRPGYTGVDCELELSECDSNPCRNGGSCKDQEDGYHCLCPPGYYGLHCEHSTLSCADSPCFNGGSCRERNQGANYACECPPNFTGSNCE
off-rate from fitted SPR sensograms: progressive decreases in off-rate

binding affinity compared to WT DLL4: enhanced affinity
B2: DLL4.v2: human DLL4 clone with five mutations N257P, T271L, F280Y, S301R, Q305P; matches SEQ ID NO: 5 (protein)
chain: SGVFQLQLQEFINERGVLASGRPCEPGCRTFFRVCLKHFQAVVSPGPCTFGTVSTPVLGTNSAVRDDSSGGGRNPLQLPFNFTWPGTFSLIIEAWHAPGDDLRPEALPPDALISKIAIQGSLAVGQNWLLDEQTSTLTRLRYSYRVICSDNYYGDNCSRLCKKRNDHFGHYVCQPDGNLSCLPGWTGEYCQQPICLSGCHEQNGYCSKPAECLCRPGWQGRLCNECIPHPGCRHGTCSTPWQCLCDEGWGGLYCDQDLNYCTHHSPCKNGATCRNSGPRSYTCTCRPGYTGVDCELELSECDSNPCRNGGSCKDQEDGYHCLCPPGYYGLHCEHSTLSCADSPCFNGGSCRERNQGANYACECPPNFTGSNCE
off-rate from fitted SPR sensograms: progressive decreases in off-rate

Reference: patent US20260055369A1, “METHOD FOR GENERATING CELLS OF THE T CELL LINEAGE WITH ENGINEERING BROADLY REACTIVE HUMAN NOTCH LIGAND” (H. Lee Moffitt Cancer Center and Research Institute, Inc., priority 2022, published 2026)
